B1: Clone-01, PDGF-B variant displayed on the yeast surface (ligand)
chain: SLGSLTIAEPAMIAECKTRTELFRISRNLIDRTNANFLVWPPCVEVQRCSGCCNNRYVQCRPTQVQLRPVQVRKIEFVRKKPIFKKATVTLEDHLACRCETVAA
notes: not shown: Aga2p fusion partner, glycine-rich linkers and c-myc tag
B2: Clone-08, PDGF-B variant displayed on the yeast surface (ligand)
chain: SLGSLTIAEPAMIAECKTRTELFRISRNLIDRTNANFLVWPPCVEVQRCSGCCNNRYVQCRPTQVQLRPVQVRKIEIVRKKPIFKKATVTLEDHLACRCETVAA
notes: as for B1
B3: Clone-02, PDGF-B variant displayed on the yeast surface (ligand)
chain: SLGSLTIAEPAMIAECNTRTEVFRISRNLIDRTNANFLVWPPCVEVQRCSGCCNNRNVQCRPTQVQLRPVQVRKIEFVRKKPIFKKATVTLEDHLACRCEKVAA
notes: as for B1
B4: Clone-07, PDGF-B variant displayed on the yeast surface (ligand)
chain: SLGSLTIAEPAMIAECKTRTEVFEISRNLIDRTNANFLVWPPCVEVQRCSGCCNNRNVQCRPTQVQLRPVQVRKIEFVRKKPIFKKATVTLEDHLACKCETVAA
notes: as for B1
B5: Clone-03, PDGF-B variant displayed on the yeast surface (ligand)
chain: SLGSLTIAEPAMIAECKTRTELFRISRNLIDRTNANFLVWPPCVEVQRCSGCCNNRYVQCRPTQVQLRPVQVRKIEFVRKKPIFKKATVTLEDHLACKCEKVAA
notes: as for B1
B6: PDGF-B-cons (consensus sequence), displayed on the yeast surface (ligand)
chain: SLGSLTIAEPAMIAECKTRTEVFRISRNLIDRTNANFLVWPPCVEVQRCSGCCNNRYVQCRPTQVQLRPVQVRKIEFVRKKPIFKKATVTLEDHLACRCETVAA
notes: Consensus of the isolated clones, tested on the yeast surface; also called PDGF-BB-cons; not shown: Aga2p fusion partner, glycine-rich linkers and c-myc tag

T1 sequence (P09619 33-532 limits assumed): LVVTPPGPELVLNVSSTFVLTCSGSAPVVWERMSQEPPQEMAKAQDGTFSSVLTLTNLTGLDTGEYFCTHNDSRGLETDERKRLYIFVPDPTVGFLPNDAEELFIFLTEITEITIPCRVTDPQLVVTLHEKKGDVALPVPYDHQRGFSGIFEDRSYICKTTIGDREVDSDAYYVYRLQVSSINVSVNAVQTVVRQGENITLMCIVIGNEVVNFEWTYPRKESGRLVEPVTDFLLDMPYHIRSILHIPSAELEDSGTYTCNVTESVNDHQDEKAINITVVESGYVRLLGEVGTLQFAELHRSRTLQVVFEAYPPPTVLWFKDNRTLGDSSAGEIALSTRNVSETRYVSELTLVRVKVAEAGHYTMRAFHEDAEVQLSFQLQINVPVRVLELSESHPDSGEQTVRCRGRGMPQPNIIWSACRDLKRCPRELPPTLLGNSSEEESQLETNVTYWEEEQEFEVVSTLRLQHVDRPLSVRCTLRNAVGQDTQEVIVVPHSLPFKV

The first assay concerns the target T1, PDGFRβ soluble extracellular domain (UniProt P09619 33-532, limits assumed, fluorescently labeled).
T1 construct: extracellular domain; also called PDGFRβ ectodomain; soluble PDGFRβ
As to the kind of experiment: combinatorial yeast display library enriched by FACS for high binding signal to PDGFRβ ectodomain. (In general: A flow cytometer gives signals particle by particle.)
As for B1, the binding result was “binds”.

Regarding B2, the binding result is “binds”.

For B3, the binding result was “binds”.

With B4, the binding result is listed as “binds”.

In the case of B5, the binding result is listed as “binds”.

The next assay has as its target T1, PDGFRβ soluble extracellular domain. As to the kind of experiment: yeast surface display, flow cytometry with soluble PDGFRβ.
As for B6, the binding result is listed as “binds”.

(Values after US20230050038A1 (WASHINGTON UNIVERSITY, published 2023).)
